Laboratory results published in article PMC5383425, “Differential CLE peptide perception by plant receptors implicated from structural and functional analyses of TDIF-TDR interactions” (PLoS ONE, 2017).
Numbering of substitutions follows the chain as printed. Square brackets hold non-standard residues; d marks the D form. Ends that are not written are not given here. Hyp = O=C(O)[C@@H]1C[C@@H](O)CN1

Key:
Test in all cases: ITC; 0.5–1 mM peptide titrated into 10–40 μM ecdTDR; 25°C; 10 mM sodium citrate, 100 mM NaCl, pH 5.5; fitted to one set of binding sites; MicroCal Auto-iTC200
Details in all cases: both partners purified
ecdTDR S187A mutant = biological target: T1, ecdTDR S187A mutant (Arabidopsis thaliana, UniProt Q9FII5 30-642, S187A)
T1 construct: TDR/PXY of A. thaliana, extracellular domain, residues 30-642; source: High Five insect cells (baculovirus), secreted, purified as the wild type (Ni-NTA, size-exclusion chromatography)
T1 sequence (looked up): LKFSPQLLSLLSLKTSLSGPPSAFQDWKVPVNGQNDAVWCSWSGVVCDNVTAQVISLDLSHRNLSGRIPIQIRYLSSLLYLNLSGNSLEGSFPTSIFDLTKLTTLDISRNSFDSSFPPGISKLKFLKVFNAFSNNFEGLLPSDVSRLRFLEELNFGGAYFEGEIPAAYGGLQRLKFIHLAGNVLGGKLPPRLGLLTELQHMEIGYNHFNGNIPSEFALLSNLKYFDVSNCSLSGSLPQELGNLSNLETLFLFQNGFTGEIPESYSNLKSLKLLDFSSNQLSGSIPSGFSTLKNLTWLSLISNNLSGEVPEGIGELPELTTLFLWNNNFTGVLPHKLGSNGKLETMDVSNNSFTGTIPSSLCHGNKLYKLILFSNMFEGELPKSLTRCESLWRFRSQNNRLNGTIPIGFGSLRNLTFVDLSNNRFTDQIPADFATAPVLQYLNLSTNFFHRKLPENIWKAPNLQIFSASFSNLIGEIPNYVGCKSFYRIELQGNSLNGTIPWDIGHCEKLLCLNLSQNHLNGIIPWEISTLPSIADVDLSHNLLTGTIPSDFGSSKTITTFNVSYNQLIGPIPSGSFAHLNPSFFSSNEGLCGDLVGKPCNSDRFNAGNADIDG

ecdTDR Y188A mutant = biological target: T2, ecdTDR Y188A mutant (Arabidopsis thaliana, UniProt Q9FII5 30-642, Y188A)
T2 construct: TDR/PXY of A. thaliana, extracellular domain, residues 30-642; source: High Five insect cells (baculovirus), secreted, purified as the wild type (Ni-NTA, size-exclusion chromatography)
T2 sequence (looked up): T1 sequence (looked up) with A158S, Y159A

ecdTDR W325A mutant = biological target: T3, ecdTDR W325A mutant (Arabidopsis thaliana, UniProt Q9FII5 30-642, single alanine substitution of W325)
T3 construct: TDR/PXY of A. thaliana, extracellular domain, residues 30-642; also called single alanine substitution of W325; source: High Five insect cells (baculovirus), secreted, purified as the wild type (Ni-NTA, size-exclusion chromatography)
T3 sequence (looked up): T1 sequence (looked up) with A158S, W296A

Measured: binding result

B1: Tracheary Element Differentiation Inhibitory Factor (TDIF) peptide (peptide)
peptide: HEV[Hyp]SG[Hyp]NPISN
notes: TDIF, the 12-residue CLE peptide processed from CLE41 and CLE44 of A. thaliana; printed as HEV(Hyp)SG(Hyp)NPISN; numbers count on: the 12-residue peptide; CLE44 encodes the same peptide; also called wild type TDIF; wtTDIF; source: synthetic peptide (peptide 2.0)
binds: ecdTDR S187A mutant | ecdTDR Y188A mutant | ecdTDR W325A mutant
